Results published in US20250388623A1 (CHENGDU BRILLIANT INSPIRATION BIOTHERAPEUTICS, published 2025).
Blank lines part the entries; values can stand above or below the binder they belong to. Bridge positions count the residues as written; N and C are the ends. Ends that are not written are not given here.

Columns and labels:
[1] = target: TSP-1 protein expressed by PMA-differentiated THP-1 macrophage-like cells (UniProt P07996 19-1170); experiment: cell-based or functional assay
[2] = target: T1, TSP-1 protein (novoprotein, Catalog No. CU45) (UniProt P07996 19-1170, limits assumed); experiment: competition ELISA, TSP-1 coated, CD36-Fc 0.25 µg/mL as competitor, peptide 100 µM
T1 construct: Bought protein coated on the ELISA plate; also called Thrombospondin-1
T1 sequence (P07996 19-1170 limits assumed): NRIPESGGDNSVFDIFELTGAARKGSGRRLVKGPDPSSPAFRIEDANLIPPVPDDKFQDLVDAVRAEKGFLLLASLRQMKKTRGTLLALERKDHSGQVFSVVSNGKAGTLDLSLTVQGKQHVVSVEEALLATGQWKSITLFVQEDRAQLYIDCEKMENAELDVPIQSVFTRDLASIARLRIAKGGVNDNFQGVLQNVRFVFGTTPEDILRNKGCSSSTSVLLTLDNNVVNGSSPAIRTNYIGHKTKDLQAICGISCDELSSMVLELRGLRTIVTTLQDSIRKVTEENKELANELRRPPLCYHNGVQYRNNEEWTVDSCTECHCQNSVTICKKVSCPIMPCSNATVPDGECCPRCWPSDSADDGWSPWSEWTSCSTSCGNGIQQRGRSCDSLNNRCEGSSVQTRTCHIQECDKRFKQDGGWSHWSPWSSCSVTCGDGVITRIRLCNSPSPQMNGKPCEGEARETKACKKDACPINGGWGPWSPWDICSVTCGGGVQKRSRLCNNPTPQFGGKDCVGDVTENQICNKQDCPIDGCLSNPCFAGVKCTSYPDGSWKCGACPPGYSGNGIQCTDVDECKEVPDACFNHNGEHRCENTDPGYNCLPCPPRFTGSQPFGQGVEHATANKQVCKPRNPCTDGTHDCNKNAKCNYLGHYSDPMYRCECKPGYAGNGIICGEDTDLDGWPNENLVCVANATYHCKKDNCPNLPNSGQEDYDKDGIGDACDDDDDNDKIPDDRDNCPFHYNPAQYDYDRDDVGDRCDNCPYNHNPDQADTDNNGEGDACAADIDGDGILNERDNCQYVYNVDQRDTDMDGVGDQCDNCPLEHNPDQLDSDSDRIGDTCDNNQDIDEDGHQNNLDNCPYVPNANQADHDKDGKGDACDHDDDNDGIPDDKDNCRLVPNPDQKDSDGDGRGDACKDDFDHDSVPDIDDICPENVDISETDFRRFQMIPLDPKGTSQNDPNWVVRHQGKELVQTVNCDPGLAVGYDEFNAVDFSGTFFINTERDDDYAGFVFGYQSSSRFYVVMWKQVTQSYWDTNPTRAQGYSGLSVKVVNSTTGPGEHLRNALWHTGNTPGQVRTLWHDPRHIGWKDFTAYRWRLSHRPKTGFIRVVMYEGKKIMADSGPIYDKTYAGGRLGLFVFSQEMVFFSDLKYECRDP
Description: (§1) ELISA assay was performed to detect the ability of the polypeptides to block the binding of TSP-1 protein to CD36, a TSP-1 receptor protein. TSP-1 protein (novoprotein, Catalog No. CU45) was diluted to 2 μg/mL using 100 mM carbonate buffer and added to sample wells (100 μL/well) of a 96-well ELISA plate (Thermo, Catalog No. 437111), and incubated overnight at 4° C.; after washing the plate twice using 1×PBST wash solution, 200 μL of 1.5% BSA (Sigma, Catalog No. B2064) was added to each well, and incubated at 37° C. for 2 h; after washing the plate 3 times using 1×PBST wash solution, the analytes were added (100 μL/well, 3 replicate wells; for the control group, 0.25 μg/mL of Fc-tagged CD36 protein (R&D Systems, Catalog No. 1955-CD-050); and for the polypeptide-treated groups, a mixture containing Fc-tagged CD36 protein and polypeptide at final concentrations of 0.25 μg/mL and 100 μM, respectively), and incubated at 37° C. for 3 h. After washing the plate 5 times using 1×PBST wash solution, a 1:500 dilution solution of FITC-labeled anti-Fc-tagged antibody (Beyotime, Catalog No. A0556) was added, and incubated for 1 h at 37° C.; after washing the plate 5 times using 1×PBST wash solution, a multifunctional ELISA instrument (TECAN, model: Infinite 200 Pro) was used to detect the intensity of FITC fluorescence signal in each sample well. The ability of the polypeptides to block CD36 binding to TSP-1 protein (Table 2-1) was assessed by calculating the ratio of the fluorescence signal from the polypeptide-treated groups to that of the control group, allowing for the determination of the blocking rate of the polypeptides in inhibiting CD36 binding to TSP-1 protein, i.e., (fluorescence signal of the control group-fluorescence signal of the polypeptide-treated group)/fluorescence signal of the control group×100%. Based on the blocking rate results obtained at the single concentration and on the polypeptide molecule properties, the preferred polypeptide molecules were assayed for concentration dependence (at 0 μM, 0.5 μM, 1 μM, 5 μM, 10 μM, and 100 μM), and IC₅₀ values of the polypeptides for blocking CD36 binding to TSP-1 protein were determined to further assess the abilities of the preferred polypeptide molecules to block the binding of CD36 to TSP-1 (Table 2-2).

[3] = target: T1, TSP-1 protein (novoprotein, Catalog No. …); experiment: competition ELISA, TSP-1 coated, CD36-Fc as competitor, peptide 0-100 µM
Description: as §1

Chain of TSP-1 protein expressed by PMA-differentiated THP-1 macrophage-like cells (P07996 19-1170 limits assumed): as above

Binder: Ac-QDAEDN-NH2 [SEQ ID NO: 05]
Mean (relative fluorescence intensity), 293-TGFβ Res reporter cells [1]: 0.83 ratio to negative control

Binder: Ac-TQDAEDNTASH-NH2 [SEQ ID NO: 33]
Blocking rate (Mean, %) [2]: 21.4%
Mean (relative fluorescence intensity), 293-TGFβ Res reporter cells [1]: 0.67 ratio to negative control
IC50 [3]: 14.3 µM

Binder: TQDAEDNK (lactam 3-8) [SEQ ID NO: 42]
Mean (relative fluorescence intensity), 293-TGFβ Res reporter cells [1]: 0.67 ratio to negative control

Binder: Ac-TQDPAEDN-NH2 [SEQ ID NO: 48]
Blocking rate (Mean, %) [2]: 29.7%
IC50 [3]: 11.7 µM

Binder: Ac-TQDAEDN-NH2 (also called TQDAEDN) [SEQ ID NO: 06]
Blocking rate (Mean, %) [2]: 17.7%
Mean (relative fluorescence intensity), 293-TGFβ Res reporter cells [1]: 0.65 ratio to negative control
IC50 [3]: 12.7 µM

Binder: Ac-TQDAEDNTV-NH2 [SEQ ID NO: 17]
Mean (relative fluorescence intensity), 293-TGFβ Res reporter cells [1]: 0.78 ratio to negative control

Binder: TQDPEDN (Head-to-tail cyclization) [SEQ ID NO: 41]
Mean (relative fluorescence intensity), 293-TGFβ Res reporter cells [1]: 0.62 ratio to negative control

Binder: Ac-TQDAEDNTASF-NH2 [SEQ ID NO: 31]
Mean (relative fluorescence intensity), 293-TGFβ Res reporter cells [1]: 0.79 ratio to negative control

Binder: Ac-TQDAEDNT-NH2 [SEQ ID NO: 15]
Blocking rate (Mean, %) [2]: 30.6%
IC50 [3]: 5.65 µM

Binder: Ac-TQDAEDNTAS-NH2 [SEQ ID NO: 24]
Blocking rate (Mean, %) [2]: 32.6%
Mean (relative fluorescence intensity), 293-TGFβ Res reporter cells [1]: 0.57 ratio to negative control
IC50 [3]: 10.6 µM

Binder: Ac-TQDPEDNTAS-NH2 [SEQ ID NO: 26]
Blocking rate (Mean, %) [2]: 53.8%
Mean (relative fluorescence intensity), 293-TGFβ Res reporter cells [1]: 0.68 ratio to negative control
IC50 [3]: 3.4 µM

B3: SEQ ID NO: 40 (peptide)
peptide: TQDAEDN
modifications: Head-to-tail cyclization
notes: cyclic peptide; also called TQDAEDN; cyclo[Thr-Gln-Asp-Ala-Glu-Asp-Asn]
Blocking rate (Mean, %) [2]: 37.5%
Mean (relative fluorescence intensity), 293-TGFβ Res reporter cells [1]: 0.77 ratio to negative control
IC50 [3]: 7.7 µM

Continued, values first:

Blocking rate (Mean, %) [2]: 46%
Mean (relative fluorescence intensity), 293-TGFβ Res reporter cells [1]: 0.52 ratio to negative control
IC50 [3]: 5.96 µM
B1: SEQ ID NO: 45 (peptide)
peptide: QDAEDNT
modifications: Head-to-tail cyclization
notes: cyclic peptide; also called QDAEDNT; cyclo[Gln-Asp-Ala-Glu-Asp-Asn-Thr]

Blocking rate (Mean, %) [2]: 30.2%
IC50 [3]: 10.1 µM
Binder: Ac-TQDAEDNTQD-NH2 [SEQ ID NO: 49]

Mean (relative fluorescence intensity), 293-TGFβ Res reporter cells [1]: 0.7 ratio to negative control
Binder: Ac-TQDPED-NH2 [SEQ ID NO: 03]

Blocking rate (Mean, %) [2]: 22.8%
IC50 [3]: 22.9 µM
Binder: Ac-QDAEDNTAS-NH2 [SEQ ID NO: 23]

Mean (relative fluorescence intensity), 293-TGFβ Res reporter cells [1]: 0.77 ratio to negative control
Binder: Ac-TQDAED-NH2 [SEQ ID NO: 04]

Blocking rate (Mean, %) [2]: 27.9%
Mean (relative fluorescence intensity), 293-TGFβ Res reporter cells [1]: 0.7 ratio to negative control
IC50 [3]: 4.76 µM
Binder: Ac-TQDPEDN-NH2 (also called TQDPEDN) [SEQ ID NO: 14]

Mean (relative fluorescence intensity), 293-TGFβ Res reporter cells [1]: 0.8 ratio to negative control
Binder: Ac-TQDPAED-NH2 [SEQ ID NO: 47]

Blocking rate (Mean, %) [2]: 40.9%
Mean (relative fluorescence intensity), 293-TGFβ Res reporter cells [1]: 0.74 ratio to negative control
IC50 [3]: 7.2 µM
Binder: Ac-TQDAEDPTA-NH2 [SEQ ID NO: 22]

Blocking rate (Mean, %) [2]: 23.1%
Mean (relative fluorescence intensity), 293-TGFβ Res reporter cells [1]: 0.83 ratio to negative control
IC50 [3]: 4.85 µM
Binder: Ac-TQDAEDNTVSFLQ-NH2 [SEQ ID NO: 36]

Blocking rate (Mean, %) [2]: 23.4%
Mean (relative fluorescence intensity), 293-TGFβ Res reporter cells [1]: 0.84 ratio to negative control
IC50 [3]: 10.6 µM
B2: SEQ ID NO: 50 (peptide)
peptide: YRVRFLAKENVTQDAEDN
notes: Printed as 'Without modification'; also called Positive control group

Blocking rate (Mean, %) [2]: 33%
Mean (relative fluorescence intensity), 293-TGFβ Res reporter cells [1]: 0.73 ratio to negative control
IC50 [3]: 7.4 µM
Binder: Ac-TQDAEDPTAS-NH2 [SEQ ID NO: 25]

Blocking rate (Mean, %) [2]: 56.1%
Mean (relative fluorescence intensity), 293-TGFβ Res reporter cells [1]: 0.69 ratio to negative control
IC50 [3]: 1.4 µM
Binder: TQDPEDNTAS (Head-to-tail cyclization, cyclic peptide) [SEQ ID NO: 46]
